Source: patent publication CN114002427A (dated 2022)

Molecular target: T1, 新型冠状病毒核衣壳蛋白 (SARS-COV-2, UniProt P0DTC9 1-419)
T1 construct: also called SARS-COV-2 nucleocapsid protein; 新型冠状病毒核衣壳蛋白抗原
Test: ELISA screening of hybridomas for antigen-specific antibodies

B1: mAb#9 (antibody, V domains shown)
VH: EVQLVESGGGLVKPGGSLKLSCAASGITFSDYYMYWVRQTPEKRLEWVATISDGGSYTYYPDSVKGRFTISRDNAKNNLYLQMSSLKSEDTAMYYCVRDKSMGFGAWFAYWGQGTLVTVSA
VL: EIVLTQSPTTMAASPGEKITITCSASSSISSNYLHWYQQRPGFSPKLLIYRTSNLASGVPARFSGSGSGTSYSLTIGTMEAEDVATYYCQQGHSIPYTFGGGTKLEIK
notes: also called 新型冠状病毒核衣壳抗体(mAb#9); 第二新型冠状病毒核衣壳蛋白抗体
binding result: binds
